Data on 47 sequences can be found in the NTF2 design screens of Basanta et al. (2020).

This data set is described as follows: protease stability score; higher = more stable; yeast display proteolysis, trypsin and chymotrypsin.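 Further: log10 excess protease needed over predicted unfolded state with 0 meaning unfolded.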

“DEREAENARNYQENQKTNNPQKLQELVDPNVHWQVGDKSYKGRETQKKEMDNKRNHIREHIEHVEVRSHGDKVEAKYTAYADINGDPVRMRFDQVMVVHNGRLTEVNVDMSEDQKRKQES” yielded a protease stability score of -0.46.

The sequence “DEREAKKVVEDLKRGDWNKLMQLVDPNAKAVVGDKRVHGREQVQHMMQQFQDRIDHMEIRSVRVHNGRIEVDATFIFNGQSVRVIFHITVHNGRIQEIHVQATNEKVKHQLRKFLS” showed a protease stability score of 1.07.

Take “DEREARDVQHRINKNDPQSHEDQVDEDVKLQIGDTTWHGREELNDVIRRVRESADHIKYERVEVDGDTVVADVVYTINGKNIKLRLVVHVKNGRIKYMNMTATNPDDLRTLNEIIQ”: the protease stability score was 1.25.

For the sequence “DEREEAKRLWERFVRAIQHGDERRLRELLPPDVRVTVGDKEYHGRDQAVTWLQELAERVDHVSFDVRHIEVENGRLDIDAKVQMENNGRQHSFTLRIIADDHNGKFVIRSITYQ”, the protease stability score came to 1.84.

Consider “DEREEEKMAEDLLNAVERNNPDHAQKMVDENARVVIGDKDVHGRERMREAIKRQKEQFDRFRWTDVKVDNGRVRAQAVYERNGRTHHVDLNAVIHNGRAKSVRIEEK”, for which the protease stability score was determined as 0.022.

The sequence “DEREHAEDYARQLDKAFRTGNPDEVMKQVDKDAHFQVGERRFHGEDEFKKWAEEVFERADHIHFRVREVTRQGDKIDVDMQVDMTTNGKRETDKVRALIDTQNGRQRVDEMTFK” registered a protease stability score of 0.651.

“DEREKEHVEEFLRNWEEGNQDNLMRLADPNVRLQIGDHEIHGREQLAKHVDDERKQMRVSMQIKSVDAHNGRIHIQAERESQHDGNPTKESLVITFVLRNGRIQEVSYKRQQ” showed a protease stability score of 0.959.

In turn, “DERELDNASRVATNIATGDEEKVVKLADENAKLNVGDNEVHGTEQATREVKKTQNDLRRNVESFEIDKNGNHARLEATVYQTVNGKPVRYKMSAEVHVHNGRVTKVDVQMDHRLLQRNKK” gave a protease stability score of -0.037.

“DERELSLFHRWLEVLNDGNEENLKQNMDPNAHANIGEKEIHGMEDFARHMITKVKELRIKIDDIKSSAHNGRLTASIDQQDNDNGKPDKYTNTFRAKFSNGQIQSQKVERDG”: the protease stability score is -0.31.

Regarding “DEREMKQFIELMKQKQTGNEHHVREMFDPNAQIKVGDKTVHGKDNIREQAHRERKEMREDFRIESLDHDGERVVIKYEVQQNHNGRPKTYDVEAEAEVHNGHFKFVSVDNTE”, the protease stability score was -0.399.

As for “DERENKKHAEQLARVFQTGDHDQLRKMMPPDAKAQVGDKEYQGRDSVLHDIKRFLRQADSITIQSVTVQGNTLNIHIQLDINGKDFQAVIEVEMHNGKVVRIVIKES”, the protease stability score is -0.044.

“DERENQENVEEMNRVLQSGDEDRMKELVDPNATAVVGEKRVHGRETIKDEIRRFKDHADHITVERVTAKGNSAIIDIVYNVNGRETTIIVIANVHNGKIRHLHFQKS” came in with a protease stability score of 0.301.

For the sequence “DEREQIKKVLKRLEDIFKSGDEDKARELIDPNARMEYGDKELHGREKMARFIHELRKRIDHMEISLQDFKVKGDKLVFRAHLEAEVNGRKTSMTLRVVAHVEGDKIKIKEIQIK”, the protease stability score was 1.65.

As for “DERERERQLRDIFRVIQRGDQDRWKEQADENARIHVGDTRVHGQEEARKWFKELVDRADHFSVKRIEVNGDDMILTFEVEFNGKRHTVTIDFNVQNGRIQNINVDPEAERRIRK”, the protease stability score is 0.048.

“DERFRRLVHSFIQALHTNNPEEIKELFDPNARMTIGDKQVHGQEDISRLIDRERKEMRLEIKTFSVEDKGDTADVKMKAVWDVNGKPNRHSYDLNFVDHNGKIRSLHARMDSQYLREVKS” displayed a protease stability score of -0.074.

Sequence “DERHAHTVVKKIIDALHTGDEDTLRHLADKDVRLQVGEKEVHGREEFAKEMSKFHKRVDHMEIKDVTNTGDHASVKYSAKFDGKTFNARADLVVHNGKLKKMHIDPERQKQMDS” returned a protease stability score of 0.535.

Turning to “DERHEAEKFAQHWMEVWKKGNHTEISKLIDENARVEVGDQKYHGRSQVKTRARQEVERADHVDYTIRSVKVTGNRIDINAQQVFRVNGTEDDQTRKIVLRRQGDKVVVQSIQAG”, the protease stability score was -0.159.

Sequence “DERHIHELVKNMQTNNFEEIKKQLDENVRVVVGDTVYHGREQASKALEDMKRMADRIRYTRVDFKGNKVRIDVVMNINGHNLKMVITVVVQNGRIKELVFTARNDEVKTRLDHAIR” registered a protease stability score of 1.13.

In turn, “DERHNKQWNKELIKIWTDGDHKKFSEMLDKDVQIQVGDKEYHGREEIVRQYKTLMDRADHFEVKRYEVKGNDITIIFTFQVNGRRDQVRVVFVIENGHVKKITMDKK” displayed a protease stability score of 1.42.

“DERIKDTVDQMWSAVKNNDPDQMNENFDPNARIEVGDKEVHGRDTLKKWQDTQNKRSNKDMESVSVKVDGDKVDIEAESKFTNNGQPHTNKMTASARLENGRFKEVHIDSRK” yielded a protease stability score of -0.513.

“DERIRKEHTKRLKAEQTGDPKSAHDMADENVRVKVGDKDLTGMDNIVKTIHEEKKDQRNQLDVHSIELHGEKVKIEMQVVIEHNGRPHKTEQYLVFRADNGKLKRMEQHDSG”: the protease stability score came out at 0.023.

Turning to “DERKAEHWLDQLAQMLRTGDESHVARLMDENVNVVIGDQRFHGSDEARKAIRQLKERIDHLEVKDMKNEGNKMVVKAVADVNGRTHHLDVQMEFKNGRITRASFDPTAIKQAEG”, the protease stability score is 1.14.

“DERKAEQNARDLAQALITGDPKRVMDLADENAEVQYGDKTYSGRERLDEVVRSFRRAVDHVDVDDIKEKGDHLRIKMTIQHNGQTRQVTLDIRVKNGKAEQIKFDFTDKDWYRRAIK” registered a protease stability score of 0.344.

Consider “DERKAVKHLNTMMRLINTGNPSEAADQADKDVKVHIGDKDVHGRERASDLIKKLRDRVDTIKVKSIEERPNHLSAKIDLEHNGRTHTVVFIIHAENGKVTSMSVKTD”, for which the protease stability score was -0.349.

Take “DERKEAKEFADRIVKIIQTNNQDELEKNADPDVRVDVGDKQVHGREQLQDELKKLRTRADHVEVKIQDFKVHNGSVTVQMTIVYVVNGQKHKDERVYHAEIHNGRVKLKSARQK”: the protease stability score stood at 0.767.

In the case of “DERKEAKKWLDRLNKALHTGDSDKLKDMVDKDVRFNIGDKEIHGREQYVKHVQTRAEQIDDVQIHIHSIHVSGDEIVLTYHVVYNVNGRQESDVFNLVMVKNNGRLVVRSVTKG”, the protease stability score is -0.012.

In turn, “DERKEMQKHFDRFVTALRENNPDQLREMADPDAKVRIGDKTLHGRDEVVHYLQLLAERADHISFDVKQFDVHNGVAHVDLRMRFTVNGQERHKDMIFVLNEVNGTVVIVQVQDK” returned a protease stability score of 1.72.

“DERKIEHAQRILKHNDKHKLQNLFDKNARLEIGDTTFTGRERAQHWARRLYQQADHFEVKSVDNNPNDLTVELVVRVNGHDIHFQFRFRIKNGRITSFQVDYTDEDDERKMKDVDR” had a protease stability score of 0.369.

Consider “DERKKDRMRELFEAWKTGDEHTAEKMLDKDAKIDVGDHRVQGREQHSTDVRRRKEEIRLRVDIDSIHIHNGRVSVEYKEENNHNGKPDTKNARVDFNMHNGRVQEQKQSNES”, for which the protease stability score is -0.35.

“DERKKVEDVARHWVEAFKEGDKDRLTSLMDENVTVKVGDKQVHGSEELLEDMTNKIKQHDHVDAKILSVTFHGDEAEVDVEVRLNHNGKNRHDRYVMVMRVHNGTLRLKKLTQK” came in with a protease stability score of 1.24.

“DERKLATRHAHTLDRILRTGDEERYVDMADKDVKFDVGDRKYKGRHELHKLAKEEQKKADHLQLNYKHITAHNGRVDMDVVVVQVHNGQKRQTNVRYSEEIHNGNVIVQSATEK” came in with a protease stability score of -0.355.

As to “DERKQENVAKRVIRALQTGDSDMMERLVDPNAEVRYGDKRLRGREELREFVTTFKRAVDHLSFDRFEVHNGRAVANAKLNVNGRVMHVRIIVNFHDGRVTHIQIDVTDESQATRARS”, the protease stability score came to 0.643.

In the case of “DERKQHEVAEKVAKNFVDGNPSEFVKNMDPNAEVVIGDKTVTGREDIHRLVKDFHDKIDHIELKDLKVKNGRIEIIFQADNNGHKRQYRADVKANNGRMTTFEVREQ”, the protease stability score was determined as 0.927.

“DERKRAEKALNEWQRMWKYGNEEDFQKLADENVHFKYGDKTYRGREKMRKWVKEVLDSVDHVEVRIVSLHVRGDKITVRIRIYMEHNGRRTSFEYTMQLVDNNGHIVIVRFEQN” displayed a protease stability score of 0.203.

The sequence “DERKRAKKALDDLKHAMHSNDPDKQKELMDENVELKYGDRHVNGREQANQHAEEHFERADHLDQKIQTWDIHNGKVSVTFTMTIEFNGRRENIQVQVTFDTVDGRLRIRTAREK” gave a protease stability score of 0.525.

“DERKRATEIAEQIQTILRTGNPKDMRRMADEDVKVDVGDQRIHGRDQLATTLHKLRKRADHIDIKIVSVNAQGDKFVVRQRVRETVNGRVRTFEFVMVLRVHNGREVVKSRHQS” showed a protease stability score of 0.225.

Consider “DERKSAENFFHTLVKVMETGDEDKARKMFDENADAEVGDTEYHGREQLSKYMMTLVKNIDHIRLDLRDMHIEGDKIDIHADVEYRVNGQRTTNKLTVDVEIDNGRNKAQDIKFK”, for which the protease stability score came out at 0.214.

For “DERKVDVARNVAKAILTNDPDRAMSMVDKDVTVVIGDKEINGHEDFREHIEKQSKEAKLDMRSVDADNRGDKAVLTLDYQIDYNGKPMRDTQTIEVHVTNGRVKELRVRVDESLKRDLKS”, the protease stability score was -0.28.

As to “DERLADQVVELLHVMEDGDEKRVDQLIDKDVKFKVGDKDYHGDETARRRAKNLRDQMRIEYDLKDYRTNGDNAILNAEVRMNINGQPYSHHVKIVVRARNGKVKHLQMSFDEETQKKVDQ”, the protease stability score is 0.909.

“DERLAKQVLTMMRNERTGNEHEVDKYVDPNARFQVGDQEIHGKEELRKEVSRRRNEMRIDFRVEDMKVHGDKVHLSFKNMKNHNGRPESFRATATVHVHNGTVKSVDIKTTK” showed a protease stability score of -0.453.

For “DERLEDKMRKFLEVLRTGDEKKLRDLADPNVRFDIGEKKYRGRDEAVREYKRMRDEIRFEIKIRSLEAQGNKVDVTFEMTYDHNGKPKHNVVKLVFEQHNGKLKQLKVKSDK”, the protease stability score amounted to 0.596.

With “DERLHKQIERLFEQLNTGDEDKYVEYADPNARINVGDKNVHGRDQIRHMIRKENQEIRVEYEVKDIKASNGRARVDATVENEENGRPHTNRIDLVINVHNGRAKEIELRVPEDLLRTMKS”, the protease stability score is -0.131.

In the case of “DERLKEQVKRLWEALKENDHDELSKLVDKDAHIVVGDKEVHGRENFMTEMATELSEIRIDYKRLHIDAQGDTADVEVDVEQEHNGQPRRDVKRVEFEYENGRLVKMNVQDNG”, the protease stability score was 0.438.

Take “DERLLHEFQKNVENNNWDKLSELVDEDAKIKYGDKTITGRESLDRMFTQLKRQVDHVDIESVHIDGDKVHVDLRIRVNGHSVRFIMTAEFSNGRIKSMKIEVTSEEQQDHLNEQLS”: the protease stability score turned out to be 1.19.

Take “DERLREQLNRFHKLLEKNNPEKLVEQLDPNAEFEVGDKQYHGREQIEDWQRRLAKRQRFSRDFKSIDASNGNVRATFRVVITHDGKPDDYLAVMHFQVKNGKFKRFVIKRNQ”: the protease stability score is 0.291.

As for “DERMDDTLRRLVERGDFHKIAENADPNVRMQVGNKVFHGREEVRRAAERWQNQVDHYQVDSVRVHNGHVSAHVQATVNGQRIRFTIKIDVQGDKVQRMEIEFTSEEQKKLQDEAVE”, the protease stability score was found to be 1.41.

The sequence “DERMKKLAEQIVKARRTGDEKQQKELFDEDAHVQIGDKTVHGKENQIETMKKRRDEIRVEIRINSLSVNNGKADISLEQTDDKNGTPKTDVVRATVHATNGRVKEVRYKHDG” showed a protease stability score of -0.156.
